Test results: a protein production outcome set (Wang et al. 2014)

Experiment: label from the status in PepcDB records

Sequence	protein production
MHRLYRFCLFGMALLSSIAASAAPTDQELIAALYAKVQARQDWQAQARQCPGDNMPARAAIRATQANRCETPEQLGACLQRCEAGDGNDCYWLATTLQQAKGPAEGYEPLYQRACSLGLVSGCTNRAAGMLTADADSQGTRHCAVQTFNKACELDDPWACTMYGFHLSRGIGVAPDADLALKVLDKSCKHGPADPACSGARQLQEDIRNALEAAKR	failed
VQVGNCLQVMWLADRHSDPELYTAAKHCAKTHLAQLQNTEEFLHLPHRLLTDIISDGVPCSQNPTEAIEAWINFNKEEREAFAESLRTSLKEIGENVH	not failed
MNEFMEPLDRISAETLGHYERNAEAFFEGTRDHDVSQNIAALLSHIRTEPPFTVLDFGCGPGRDLKAFTELGHRAVGLDGAFRFVEMARDYSGCEVWHQDFLKLDLPEEHFDGIFANATLFHVPSRELPRVLGELRAALKPEGVLFASNPRGRNEEGWNRGRYGVYHDLDTWRRFLTSAGFLELEHYYRPAGLPRDQQPWLASVWRRTLEHHHHHH	not failed
VIVESLVYHLSGKTYESRLVYEPGALGRPGLVMAPNWMGIGEGAERIAKEVAEKGYVVLIADLYGQSVRPSNADEAGVAMMPLKNDRGELRKRMQEALAQLLGQSKALLEPGKVATFGFCFGGCCALELARSGADLRAAVSFHGTLDTPNPEDAKRIKGSVLVLHGASDPLVPKEQLPAFEDEMNAAKVDWQLLSYGGAVHSFTDPNANMPGKMQYDRRTSERAFRSMHNLLSEVF	failed
MSVSPVQPDPSVIGGVPKAPFVLKPNLARLFNDRASRFEALAQGSHLAPYLNFLAGITRIQSELVSALPPPEPVPADRVERARANAMPPIDRAAMGGSPDCREVLQQFFEKAEALEKPAAAAEALAQVRTADEEMLTWMIGNVMADDLPVESLAHHLYVAAAMQIQAARLAAGLDGSRLVPIRVGVCPACGGRPVASMVIGFHGAEGARYASCSCCATMWNEVRVKCLACGSTKGIGYQAVETGDEEATVKAEVCDTCNSWMKILYQNKNPSLDVVADDVASLGLDLLMKDTEYKRAGFDPFLMGY	not failed
AWGLAATGKEFLWVMRPDSVAGEEAVIPKEFLAETADRRMLTSWCPQEKVLSHPAVGGFLTHCGWNSTLESLSCGVPMVGIEIGGDVKRGEVEAVVRELMDGEKGKKMREKAVEWRRLAEKATKLPCGSSVINFETIVNKVLLGKIPNT	failed
MQPGWMSSRFYQTCDWIWKLAYINLLWLSGTLLGLVVLGFLPATTAMFTVLRKWFTGNPDVAITRTFFQAYKNEFLKINLLGAVLLLGAYILYFNYMYLGTVEGTVHMVLSLGWYAFLILYIITLFYIIPAYVHYNLKLFQYIKTALIIGFVNPLALVTLAISIGLLGYLLYLVPGLIPFFGPSTFALIVMWCANMSFNRVEKKKEKLELAGQN	failed
MIQSQINRNIRLDLADAILLSKAKKDLSFAEIADGTGLAEAFVTAALLGQQALPADAARLVGAKLDLDEDSILLLQMIPLRGCIDDRIPTDPTMYRFYEMLQVYGTTLKALVHEKFGDGIISAINFKLDVKKVADPEGGERAVITLDGKYLPTKPF	not failed
MTTHQVKKSEAKRQHILDSGFHLVLRKGFVGVGLQEILKTSGVPKGSFYHYFESKEAFGCELLKHYISDYQIRLNQLWTTETSARDKLMNYLQCWVKDPATEQSWAESCLIVKMAAEVADLSEDMRLIMNDGVKRLIARMADLIRIGQQEGSIQTSVVPDVLAQVIYQMYLGAALLSKLYKHKAPLFQALESTKMMLDGCNHVQQDKNQ	not failed
MRICLFLCLCLCMASPALAQVAVFPALSGKTDAQTLVVYSSLDEPLATPMIEGFQKANPDIAVHYEDMLTGEIYDRIVKETDAGKKTADFAFSSAMDLQVKLSNDGYAQRSDLAMSARWPAWANWRNTAYALTFEPAVFVYHKPSFTTEKPPATRAEFVDYLERHAKEVHGRIATYDIERSGVGFLFMSRDQEQFGDIWSVIKAMGAAGVKVYSTSSAILERVSDGRFVLGYNILGSYAADWASRHPDVGIVLPKDYTVVMSRIGLVPEAAANPELGRRYLEFFMSKEGQTIMARQLQIPAVSPEVAGENTANTMQAIHGAQLRPVPVSPGLMVYLDQVKRSRLIERWNEALRSQ	failed
MAGAGGGNDIQWCFSQVKGAVDDDVAEADIISTVEFNHSGELLATGDKGGRVVIFQQEQENKIQSHSRGEYNVYSTFQSHEPEFDYLKSLEIEEKINKIRWLPQKNAAQFLLSTNDKTIKLWKISERDKRPEGYNLKEEDGRYRDPTTVTTLRVPVFRPMDLMVEASPRRIFANAHTYHINSISINSDYETYLSADDLRINLWHLEITDRSFNIVDIKPANMEELTEVITAAEFHPNSCNTFVYSSSKGTIRLCDMRASALCDRHSKLFEEPEDPSNRSFFSEIISSISDVKFSHSGRYMMTRDYLSVKIWDLNMENRPVETYQVHEYLRSKLCSLYENDCIFDKFECCWNGSDSVVMTGSYNNFFRMFDRNTKRDITLEASRENNKPRTVLKPRKVCASGKRKKDEISVDSLDFNKKILHTAWHPKENIIAVATTNNLYIFQDKVN	failed
